Data: publication PMC5296656

Molecular target: RpL4 (as it stands in the Acl4·RpL4 complex) (not stated (S. cerevisiae or C. thermophilum cDNA cloned))
Test: SEC; Superdex 200 10/300 GL, 20 mM TRIS pH 8.0, 100 mM NaCl, 5 mM DTT; pre-incubation 1 h at 4 °C; fractions on SDS-PAGE, Coomassie

- stoichiometry N (Acl4 per RpL4): 2
Substance: Acl4 (untagged, purified) (natural protein)
